Assay results as given in paper PMC13000311 (Nature Communications, 2026).

B1: human flotillin-1 with a C-terminal 3× FLAG tag (natural protein, UniProt O75955 1-427, looked up)
chain: MFFTCGPNEAMVVSGFCRSPPVMVAGGRVFVLPCIQQIQRISLNTLTLNVKSEKVYTRHGVPISVTGIAQVKIQGQNKEMLAAACQMFLGKTEAEIAHIALETLEGHQRAIMAHMTVEEIYKDRQKFSEQVFKVASSDLVNMGISVVSYTLKDIHDDQDYLHSLGKARTAQVQKDARIGEAEAKRDAGIREAKAKQEKVSAQYLSEIEMAKAQRDYELKKAAYDIEVNTRRAQADLAYQLQVAKTKQQIEEQRVQVQVVERAQQVAVQEQEIARREKELEARVRKPAEAERYKLERLAEAEKSQLIMQAEAEAASVRMRGEAEAFAIGARARAEAEQMAKKAEAFQLYQEAAQLDMLLEKLPQVAEEISGPLTSANKITLVSSGSGTMGAAKVTGEVLDILTRLPESVERLTGVSISQVNHKPLRTA

Legend:
[1] = target: B1; assay: cryo-EM structure
cryo-EM structure = target: the molecule itself; assay: cryo-EM structure

| stoichiometry N [1] | Binder | binding result (cryo-EM structure) |
| --- | --- | --- |
| 44 protomers (22 flotillin-1 and 22 flotillin-2) | human flotillin-2 (as in the purified complex used for cryo-EM) (natural protein, UniProt Q14254 1-428, looked up) MGNCHTVGPNEALVVSGGCCGSDYKQYVFGGWAWAWWCISDTQRISLEIMTLQPRCEDVETAEGVALTVTGVAQVKIMTEKELLAVACEQFLGKNVQDIKNVVLQTLEGHLRSILGTLTVEQIYQDRDQFAKLVREVAAPDVGRMGIEILSFTIKDVYDKVDYLSSLGKTQTAVVQRDADIGVAEAERDAGIREAECKKEMLDVKFMADTKIADSKRAFELQKSAFSEEVNIKTAEAQLAYELQGAREQQKIRQEEIEIEVVQRKKQIAVEAQEILRTDKELIATVRRPAEAEAHRIQQIAEGEKVKQVLLAQAEAEKIRKIGEAEAAVIEAMGKAEAERMKLKAEAYQKYGDAAKMALVLEALPQIAAKIAAPLTKVDEIVVLSGDNSKVTSEVNRLLAELPASVHALTGVDLSKIPLIKKATGVQV | – |
| – | B1 | binds |
